To fix the notation:
T1: human NPRA (human, UniProt P16066 33-1061)
T1 sequence (looked up): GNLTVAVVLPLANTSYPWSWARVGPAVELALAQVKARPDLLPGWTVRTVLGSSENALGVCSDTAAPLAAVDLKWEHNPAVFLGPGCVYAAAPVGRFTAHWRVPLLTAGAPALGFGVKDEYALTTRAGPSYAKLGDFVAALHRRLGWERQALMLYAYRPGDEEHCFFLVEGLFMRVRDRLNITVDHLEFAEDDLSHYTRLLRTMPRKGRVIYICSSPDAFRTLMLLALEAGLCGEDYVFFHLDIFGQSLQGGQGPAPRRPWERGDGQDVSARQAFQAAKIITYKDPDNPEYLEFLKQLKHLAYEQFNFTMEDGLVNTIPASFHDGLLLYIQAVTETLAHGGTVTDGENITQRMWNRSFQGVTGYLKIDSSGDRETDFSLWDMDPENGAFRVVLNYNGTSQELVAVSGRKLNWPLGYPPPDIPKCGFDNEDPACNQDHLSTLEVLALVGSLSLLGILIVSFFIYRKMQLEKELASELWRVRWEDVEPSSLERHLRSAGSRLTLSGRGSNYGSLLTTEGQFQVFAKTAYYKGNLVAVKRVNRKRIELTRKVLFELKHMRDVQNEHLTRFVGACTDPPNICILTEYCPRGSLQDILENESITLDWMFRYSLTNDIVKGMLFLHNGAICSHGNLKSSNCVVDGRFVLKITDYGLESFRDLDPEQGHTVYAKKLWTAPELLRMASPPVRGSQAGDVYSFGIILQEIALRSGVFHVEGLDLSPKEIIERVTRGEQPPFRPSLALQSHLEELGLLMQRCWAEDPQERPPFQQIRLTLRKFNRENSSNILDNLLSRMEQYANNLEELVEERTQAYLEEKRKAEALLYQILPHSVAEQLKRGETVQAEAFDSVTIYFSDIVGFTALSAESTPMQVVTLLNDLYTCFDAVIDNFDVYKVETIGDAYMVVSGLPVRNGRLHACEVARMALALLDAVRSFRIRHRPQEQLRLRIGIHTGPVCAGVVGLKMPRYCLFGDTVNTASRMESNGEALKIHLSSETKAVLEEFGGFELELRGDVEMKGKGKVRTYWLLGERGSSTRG

T2: rat NPRA (rat, UniProt P18910 29-1057)
T2 sequence (looked up): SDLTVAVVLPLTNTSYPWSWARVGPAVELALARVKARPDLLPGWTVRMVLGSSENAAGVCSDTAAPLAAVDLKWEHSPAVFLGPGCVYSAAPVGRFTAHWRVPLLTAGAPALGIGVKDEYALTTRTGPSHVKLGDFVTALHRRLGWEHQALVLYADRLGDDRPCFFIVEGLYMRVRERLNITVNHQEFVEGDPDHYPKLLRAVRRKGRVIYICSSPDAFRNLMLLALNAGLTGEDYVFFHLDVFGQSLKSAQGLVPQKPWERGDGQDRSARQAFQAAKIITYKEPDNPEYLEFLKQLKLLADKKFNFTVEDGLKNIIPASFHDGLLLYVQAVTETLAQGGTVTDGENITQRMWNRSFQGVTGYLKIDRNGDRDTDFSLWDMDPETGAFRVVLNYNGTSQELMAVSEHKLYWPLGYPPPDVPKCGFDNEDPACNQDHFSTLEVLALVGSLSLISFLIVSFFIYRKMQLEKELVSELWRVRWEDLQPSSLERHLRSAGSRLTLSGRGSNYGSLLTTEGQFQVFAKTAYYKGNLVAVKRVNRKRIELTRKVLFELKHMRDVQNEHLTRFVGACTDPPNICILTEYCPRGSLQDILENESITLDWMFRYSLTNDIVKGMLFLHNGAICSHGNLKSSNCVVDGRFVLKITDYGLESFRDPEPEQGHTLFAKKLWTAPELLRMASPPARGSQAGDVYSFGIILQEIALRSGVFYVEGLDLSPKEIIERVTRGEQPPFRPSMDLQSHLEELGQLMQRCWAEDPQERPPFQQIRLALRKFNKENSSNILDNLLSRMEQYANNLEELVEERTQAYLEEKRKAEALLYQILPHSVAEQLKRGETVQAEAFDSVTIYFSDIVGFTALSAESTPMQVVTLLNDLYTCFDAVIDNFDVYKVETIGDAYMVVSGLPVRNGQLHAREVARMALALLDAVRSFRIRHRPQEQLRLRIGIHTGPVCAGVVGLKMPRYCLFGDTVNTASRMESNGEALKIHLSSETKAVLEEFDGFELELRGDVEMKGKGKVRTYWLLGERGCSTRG

B1: HOOC-(CH2)18-CO-(γGlu)-EKEKEKG-(AEEA)6-S-4Pal-RRSS[CFGKRIDRIGHYSGLGC]PSFRHGGKSSGAPPPS-NH2 (peptide)
peptide: SXRRSSCFGKRIDRIGHYSGLGCPSFRHGGKSSGAPPPS
modifications: N-terminus acylated with HOOC-(CH2)18-CO-(γGlu)-; (AEEA)6 after EKEKEKG; 4Pal; thioacetal linkage between the two bracketed Cys; C-terminal amide
B2: HOOC-(CH2)18-CO-(γGlu)-EKEKEKG-PEG24-EK-βAla-RSS[CFGKRIDRIGHYSGLGC]PSFRHGSPSSGAPPPS-NH2 (peptide)
peptide: EKXRSSCFGKRIDRIGHYSGLGCPSFRHGSPSSGAPPPS
modifications: N-terminus acylated with HOOC-(CH2)18-CO-(γGlu)-; PEG24 after EKEKEKG; βAla; thioacetal linkage between the two bracketed Cys; C-terminal amide
B3: HOOC-(CH2)18-CO-(γGlu)-EKEKEKG-(AEEA)8-S-4Pal-RRSS[CFGKRIDRIGHYSGLGC]PSFRHGSPSSGAPPPS-NH2 (peptide)
peptide: B1 peptide with G30S, K31P
modifications: N-terminus acylated with HOOC-(CH2)18-CO-(γGlu)-; (AEEA)8 after EKEKEKG; 4Pal; thioacetal linkage between the two bracketed Cys; C-terminal amide
B4: HOOC-(CH2)18-CO-(γGlu)-EKEKEKG-(AEEA)6-S-4Pal-βAla-RSS[CFGGRIDRIGHYSGLGC]PSFRHGSPSSGAPPPS-NH2 (peptide)
peptide: B2 peptide with E1S, K2X, K10G
modifications: N-terminus acylated with HOOC-(CH2)18-CO-(γGlu)-; (AEEA)6 after EKEKEKG; 4Pal; βAla; thioacetal linkage between the two bracketed Cys; C-terminal amide
B5: HOOC-(CH2)18-CO-(γGlu)-EKEKEKGEK-βAla-RSS[CFGKRIDRIGHYSGLGC]PSFRHGSPSSGAPPPS-NH2 (peptide)
peptide: {C20 diacid-γGlu}-EKEKEKGEK[βAla]RSSCFGKRIDRIGHYSGLGCPSFRHGSPSSGAPPPS-NH2
modifications: bridge 14-30 via thioacetal
B6: HOOC-(CH2)18-CO-(γGlu)-EKEKEKGEKPRSS[CFGKRIDRIG-Orn-QSGLGC]PSFRHGSPSSGAPPPS-NH2 (peptide)
peptide: XEKEKEKGEKPRSSCFGKRIDRIGXQSGLGCPSFRHGSPSSGAPPPS
modifications: N-terminus acylated with HOOC-(CH2)18-CO-(γGlu)-; Orn; thioacetal linkage between the two bracketed Cys; C-terminal amide

Changes are numbered by the printed parent chain. Numbered stars: 1 amine (or outer) side, 2 acyl side, 3 side chain; on linkers, the order of the positions; unused ones are H or OH. Bridge positions count the residues as written; N and C are the ends. Square brackets hold non-standard residues; d marks the D form. * marks the point of attachment. thioacetal = thioacetal linkage between two cysteines (intrachain bond at the bracketed Cys); C20 diacid = O=C(O)CCCCCCCCCCCCCCCCCCC(=O)*; γGlu = O=C(O)[C@H](CCC(=O)[*:2])N[*:1]; βAla = NCCC(=O)O

One experiment deals with T1, human NPRA. Nature of the experiment: cell-based or functional assay.
B1: the “cGMP Assay (EC50, pM) w/BSA, hNPRA” value is 4470 pM and the “cGMP Assay (EC50, pM) w/Casein, hNPRA” value amounted to 527 pM.
As to B2, the “cGMP Assay (EC50, pM) w/BSA, hNPRA” value is 4330 pM and the “cGMP Assay (EC50, pM) w/Casein, hNPRA” value amounted to 741 pM.
For the molecule B3, the “cGMP Assay (EC50, pM) w/BSA, hNPRA” value stood at 3770 pM and the “cGMP Assay (EC50, pM) w/Casein, hNPRA” value is 646 pM.
As to B4, the “cGMP Assay (EC50, pM) w/Casein, hNPRA” value amounted to 1530 pM.
For the molecule B5, the “cGMP Assay (EC50, pM) w/BSA, hNPRA” value was 11600 pM and the “cGMP Assay (EC50, pM) w/Casein, hNPRA” value was found to be 282 pM.

A further experiment addresses T2, rat NPRA. Nature of the experiment: cell-based or functional assay.
In the case of B1, the “cGMP Assay (EC50, pM) w/BSA, rNPRA” value is 312000 pM and the “cGMP Assay (EC50, pM) w/Casein, rNPRA” value came to 2630 pM.
The like results for B2 were, in that order, 187000 pM and 9630 pM.
B6: the “cGMP Assay (EC50, pM) w/Casein, rNPRA” value is 192000 pM.
On to B3, for which the “cGMP Assay (EC50, pM) w/BSA, rNPRA” value worked out at 149000 pM and the “cGMP Assay (EC50, pM) w/Casein, rNPRA” value worked out at 3780 pM.
Taken in the same sequence, the figures for B5 were 138000 pM and 1340 pM.

These data come from US20240174727A1, “LONG-ACTING NATRIURETIC PEPTIDES AND USES THEREOF” (Eli Lilly and Company, priority 2022, published 2024).
